From article doi:10.1101/2020.02.01.930206 (bioRxiv, 2020)

What was measured:
[1] = molecular target: T1, Drosophila melanogaster CIAO1-CIAO2B core complex (Drosophila melanogaster, UniProt Q7K1Y4;Q9VTC4); test: crystal structure
T1 sequence 1: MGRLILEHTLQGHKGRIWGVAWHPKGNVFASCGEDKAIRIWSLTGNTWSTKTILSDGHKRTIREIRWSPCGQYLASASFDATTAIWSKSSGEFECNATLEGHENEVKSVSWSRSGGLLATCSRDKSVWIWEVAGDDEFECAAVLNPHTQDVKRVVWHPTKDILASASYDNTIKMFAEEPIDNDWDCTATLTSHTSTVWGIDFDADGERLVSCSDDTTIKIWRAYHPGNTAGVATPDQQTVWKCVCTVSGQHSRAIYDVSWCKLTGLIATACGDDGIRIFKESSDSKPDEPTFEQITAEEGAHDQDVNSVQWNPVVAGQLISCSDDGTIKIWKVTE
T1 sequence 2: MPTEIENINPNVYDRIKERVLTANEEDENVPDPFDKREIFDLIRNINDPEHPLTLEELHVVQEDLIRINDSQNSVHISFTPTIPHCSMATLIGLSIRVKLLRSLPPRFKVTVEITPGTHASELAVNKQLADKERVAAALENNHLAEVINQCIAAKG

[2] = molecular target: T2, Drosophila melanogaster CIAO2B (Drosophila melanogaster, UniProt Q9VTC4 1-156); test: crystal structure
T2 sequence: T1 sequence 2

binding result [1]: binds | binding result [2]: binds
B1: C-terminal fragment of mouse MMS19 (residues 911-1031) (domain or fragment)
chain: ELPTLLSLLLEALSCPDSVVQLSTLSCLQPLLLEAPQIMSLHVDTLVTKFLNLSSSYSMAVRIAALQCMHALTRLPTSVLLPYKSQVIRALAKPLDDKKRLVRKEAVSARGEWFLLGSPGS
